From paper PMC10984984, “Loss-of-function mutation in PRMT9 causes abnormal synapse development by dysregulation of RNA alternative splicing”

T1: SF3B2 peptide R508me0 (unmodified) (UniProt Q13435)
T1 chain: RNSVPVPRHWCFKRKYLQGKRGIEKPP


Molecular target: T1, SF3B2 peptide R508me0 (unmodified)
Experiment: EMSA; R508me0; RNA 1 uM, peptide 1.4-140 uM; 20 mM Tris-HCl pH 8.0, 150 mM NaCl, 1.5 mM MgCl2, 0.5 mM EDTA, 100 U/mL RNasin, room temperature, 20 min; 6% native gel in 0.5x TBE
Conditions: label: 5' 6-FAM

Binder | binding result
CAUAGAAAAAAGUUAAGUUAA (ssRNA) [Stag2 upstream probe A (nonconsensus anchoring site)] | binds
UAAUAGUCAUGCCUUGGUUCA (ssRNA) [Stag2 downstream probe B (consensus anchoring site)] | binds
